Legend:
[1] = biological target: extracellular portion of CD147 (ECD), amino acids 22–205 (human) (UniProt P35613); assay: SPR; Biacore T200; CD147ECD peptides diluted in 10 mM sodium acetate pH 4.5 and immobilised on a CM5 chip; purified proteins injected as analytes at 10 µL/min; BSA signal subtracted
[2] = biological target: domain 1 of CD147 (human) (UniProt P35613); assay: as above

- Kd [1]: 431 nM
- Kd [2]: 3530 nM
Substance: extracellular portion of CD98 (212-630 of CD98hc) (domain or fragment)
